Positions count from the first letter of the chain named.

For experiment [1], the target named is T1, Canine IL-31RA ECD-10His (canine, biotin-labeled in the Octet assay (site not stated)).
T1 construct: The ELISA and Octet protocols say only 'IL-31RA' or 'canine IL-31RA'; also called cIL-31RA; canine IL-31 receptor alpha extracellular domain, HIS-tagged
T1 chain: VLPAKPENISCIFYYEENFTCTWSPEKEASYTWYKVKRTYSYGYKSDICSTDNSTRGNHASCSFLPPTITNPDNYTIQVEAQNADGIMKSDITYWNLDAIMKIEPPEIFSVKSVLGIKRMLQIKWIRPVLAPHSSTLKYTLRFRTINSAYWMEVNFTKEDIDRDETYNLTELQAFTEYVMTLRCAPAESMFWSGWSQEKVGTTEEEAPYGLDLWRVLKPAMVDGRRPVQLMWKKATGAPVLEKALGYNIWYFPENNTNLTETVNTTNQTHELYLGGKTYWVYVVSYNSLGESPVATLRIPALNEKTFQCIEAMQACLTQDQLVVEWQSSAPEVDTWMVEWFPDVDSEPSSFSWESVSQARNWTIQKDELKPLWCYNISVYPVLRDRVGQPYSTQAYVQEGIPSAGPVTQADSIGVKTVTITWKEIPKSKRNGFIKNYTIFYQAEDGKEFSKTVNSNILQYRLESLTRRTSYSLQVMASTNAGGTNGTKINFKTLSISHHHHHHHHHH
Nature of the experiment: ELISA on coated canine IL-31RA, anti-canine IgG Fc-HRP (Example 11), the unit is that of the x axis 'Ab Log Conc. (ng/mL)'. The procedure:
1. Coat 200 ng/well of IL-31RA on an immunoplate and incubate the plate at 4° C. overnight. [0257] 2. Wash the plate 3 times with phosphate buffered saline (PBS) containing 0.05% Tween 20 (PBST). […] 3. Block the plate with 0.5% bovine serum albumin (BSA) in PBS for 45-60 min at room temperature. [0259] 4. Wash the plate 3 times with PBST. [0260] 5. Three-fold dilute the caninized antibody in each column or row of dilution plate starting at 0.3 μg/mL. [0261] 6. Transfer the diluted caninized antibody into each column or row of the immunoplate, and incubate the plate for 45-60 min at room temperature. [0262] 7. Wash the plate 3 times with PBST. [0263] 8. Add 1:4000 diluted horseradish peroxidase labeled anti-canine IgG Fc into each well of the plate, and then incubate the plate for 45-60 min at room temperature. [0264] 9. Wash the plate 3 times with PBST. [0265] 10. Add 3,3′,5,5′-tetramethylbenzidine (TMB) Substrate into each well of the plate, and incubate the plate for 10 to 15 min at room temperature to develop the color. [0266] 11. Add 100 μL 1.5 M phosphoric acid into each well to stop the reaction. Read plate at 450 nm with 540 nm reference wavelength.
As depicted in FIGS. 7A-7E, the caninized antibodies were tested for their reactivity to canine IL-31RA.

In experiment [2] the target is T1, Canine IL-31RA ECD-10His. Put plainly: BLI (Octet HTX), biotin-labeled canine IL-31RA on SA biosensors, 1:1 fit. The method, then:
These constants reflect the binding affinity of the individual monoclonal antibodies for canine IL-31 RA.
(§1) All kinetics measurements were performed by Octet HTX using SA biosensors and Data Acquisition 12.0 software. A biotin-labeled antigen (canine IL-31RA) was loaded onto the pre-rehydrated SA biosensors for 120s at a concentration of 1 μg/mL. Next, the biosensors were placed into Octet Kinetics Buffer (PBS+0.02% Tween 20, 0.1% BSA) for the blocking phase for 120s. Then, for the association phase, antigen loaded biosensors were placed into 2-fold serial dilutions from 100 nM down to 3.13 nM of anti-IL-31RA monoclonal antibody in Octet Kinetics Buffer for 300s. The last well was buffer alone and that sensor was used for reference sensor subtraction. Finally, the biosensors were placed into Octet Kinetics Buffer for the dissociation phase for 300s. Analysis was performed using Data Analysis 12.0 software and curves were fitted using a 1:1 binding model.
A general note: BLI is a label-free optical method that tracks binding on a fibre tip over time.

The target of experiment [3] is T1, Canine IL-31RA ECD-10His. Nature of the experiment: BLI (Octet), biotin-labeled canine IL-31RA on SA biosensors. The method, then: as §1
Two of the top blocking antibodies: 51F8 and 218D9, had KDs of about 0.2 nM and about 0.07 nM respectively (see, Table 5B below).

B1: Chimeric 100H8 (antibody, V domains shown)
VH: EVQLQQSGPELVKPGASVKIPCKASGYTFTDYNMDWVKQSHGKSLEWIGHINPNNGGILYNQKFKGKATLTVDRSSNTAYMELRSLTSEDTAVYFCARWAPLVRQPYWYFDVWGTGTTVTVSS
VL: DIKMTQSPSSIFASLGERVTITCKASQDINSYLNWFQQKPGKSPKTLIYRADRLVDGVPSRFSGSGSGQDYSLTISSLEYEDMGIYYCLQYDEFPLTFGAGTKLELN
notes: also called murine-canine chimeric 100H8
For orientation: EC50 means the concentration giving half of the maximal effect. A higher EC50 goes with a less potent agent. In experiment [1], B1 registered an EC50 of 2.02 ng/mL.

B2: 100H8 (antibody, V domains shown)
VH: B1 VH
VL: B1 VL
notes: Mouse monoclonal antibody from a hybridoma; also called mouse mAb 100H8
What is called Kd is the equilibrium constant for the complex coming apart. As a reminder, the koff is the first-order rate constant of dissociation. High values mean fast dissociation, low ones slow dissociation. The term kon denotes the rate constant with which the complex forms. B2: in experiment [2], the Kd came to 0.152 nM, the koff worked out at 0.00012 s⁻¹ and the kon came to 788000 M⁻¹ s⁻¹.

B3: 222E7 (antibody, V domains shown)
VH: B1 VH with A16S, N55I, I58T, T71S, R74K, N77S, F95Y, P101Q, V103Q, T115P
VL: B1 VL with I11M, F12Y, A51V, D52N, N107K
notes: Mouse monoclonal antibody from a hybridoma; also called mouse mAb 222E7
Regarding B3, in experiment [2], the dissociation constant Kd is 0.174 nM, the koff was found to be 0.000282 s⁻¹ and the kon was found to be 1.62e+06 M⁻¹ s⁻¹.

B4: 55B3 (antibody, V domains shown)
VH: B1 VH with N55T, I58T, L59I, R74K, N77S, E82D, F95Y, P101Q, V103L
VL: B1 VL with I11M, F12Y, L33F, F36V, Y49F, D52N, S76N, N107K
notes: Mouse monoclonal antibody from a hybridoma; also called mouse mAb 55B3
As for B4, in experiment [2], the Kd was 0.272 nM, the koff worked out at 0.000154 s⁻¹ and the kon was 568000 M⁻¹ s⁻¹.

B5: 74H10 (antibody, V domains shown)
VH: B1 VH with V18M, A24T, I58T, G66D, F95Y, V103L
VL: B1 VL with I11M, F12Y, A100D
notes: Mouse monoclonal antibody from a hybridoma; also called mouse mAb 74H10
In the case of B5, in experiment [2], the Kd is 0.196 nM, the koff is 9.05e-05 s⁻¹ and the kon was determined as 463000 M⁻¹ s⁻¹.

B6: 51F8 (antibody, V domains shown)
VH: EVQLQQSVAELVRPGASVKLSCTASGFNIKNTFIHWVKQRPEQGLEWIGRIDPANGNTKYAPKFQGRATLTADTSSNTAYLQLSSLTSEDTAIYYCARYYYVSSYFDVWGTGTTVTVSS
VL: SIVMTQTPKFLLVSAGDRVTITCKASQSVTNDVTWYQQKPGQSPKLLIFSASNRYTGVPDRFTGSGYGTDFTFTISTVQAEDLAVYFCQQDYSSPWTFGGGTKLEIK
notes: Mouse monoclonal antibody from a hybridoma; also called mouse mAb 51F8
For B6, in experiment [2], the Kd came out at 0.207 nM, the koff amounted to 0.000141 s⁻¹ and the kon was determined as 684000 M⁻¹ s⁻¹.

B7: Chimeric 51F8 (antibody, V domains shown)
VH: B6 VH
VL: B6 VL
notes: canine constant regions not specified; also called murine-canine chimeric 51F8
In experiment [3], B7 came in with a Kd of 0.207 nM, a koff of 0.000141 s⁻¹ and a kon of 684000 M⁻¹ s⁻¹. The same molecule came in with an EC50 in experiment [1] of 3.42 ng/mL.

B8: c51F8VH3VL6 (antibody, V domains shown)
VH: EVQLVQSGAEVKKPGASVKVSCTASGFNIKNTFIHWVRQAPGAGLDWIGRIDPANGNTKYAPKFQGRATLTADTSTNTAYMQLSSLRAGDIAVYYCARYYYVSSYFDVWGQGTLVTVSS
VL: DIVMTQTPLSLSVSPGETASISCKASQSVTNDVTWFRQKPGQSPQLLIYSASNRYTGVPDRFSGSGSGTDFTLRISTVEADDTGVYYCQQDYSSPWTFGQGTKLEIKR
notes: Caninized antibody; chains tied by name to c51F8VH3-cIgGBm and c51F8VL6-cCK; also called c51F8VH3L6
In experiment [3], B8 yielded a Kd of 2.67 nM, a koff of 0.00114 s⁻¹ and a kon of 428000 M⁻¹ s⁻¹. In experiment [1], this molecule gave an EC50 of 16.9 ng/mL.

B9: c51F8VH4VL6 (antibody, V domains shown)
VH: B8 VH with K12V, A40R, Q111T
VL: B8 VL
notes: Caninized antibody; chains tied by name to c51F8VH4-cIgGBm and c51F8VL6-cCK; also called c51F8VH4L6
In experiment [3], B9 gave a dissociation constant Kd of 1.01 nM, a koff of 0.000448 s⁻¹ and a kon of 445000 M⁻¹ s⁻¹. Besides, the EC50 in experiment [1] worked out at 8.31 ng/mL.

B10: c51F8VH3VL7 (antibody, V domains shown)
VH: B8 VH
VL: B8 VL with Q45K
notes: Caninized antibody; chains tied by name to c51F8VH3-cIgGBm and c51F8VL7-cCK; also called c51F8VH3L7
In experiment [3], B10 returned a Kd of 3.99 nM, a koff of 0.0016 s⁻¹ and a kon of 401000 M⁻¹ s⁻¹. Moreover, the response in experiment [1] was half-maximal at 25 ng/mL (EC50).

B11: c51F8VH4VL7 (antibody, V domains shown)
VH: B8 VH with K12V, A40R, Q111T
VL: B8 VL with Q45K
notes: Caninized antibody; chains tied by name to c51F8VH4-cIgGBm and c51F8VL7-cCK; also called c51F8VH4L7
For B11, in experiment [3], the Kd amounted to 1.23 nM, the koff stood at 0.000512 s⁻¹ and the kon was 416000 M⁻¹ s⁻¹. Besides, the EC50 in experiment [1] turned out to be 11.3 ng/mL.

B12: Chimeric 85C10 (antibody, V domains shown)
VH: EFQLQQSGPELVKPGASVKISCKASGYSFTDYSINWVKQSNGKSLEWIGVINPNYGTSSHNQKFKGKATMTVDQSSSTAYMQLNSLTSEDSAVYYCARALDDYYFYWYFDVWGIGTTVTVSS
VL: DVVMTQTPLSLPVSLGDQASISCRSSQSLVHTNGNTYLHWYLQKPGQSPKLLIYKVSNRFSGVPDRFSGSGSGTDFTLKISRVEAEDLGVYFCSQTTHVPLTFGAGTKLELK
notes: canine constant regions not specified; also called murine-canine chimeric 85C10
In experiment [1], B12 had an EC50 of 2.58 ng/mL.

B13: 65G9 (antibody, V domains shown)
VH: EFQLQQSGPELVKPGASVKISCKASGYSFTDYGMNWLKQINGKSLEWIAIINPNYGTASSNPKFKDKATLTVDHSSSTAYMQLSSLTSEDSAVYYCARAFDGYYFYWYFDVWGTGTTVTVSS
VL: B12 VL with V30I, V83L, T96S, K112R
notes: Mouse monoclonal antibody from a hybridoma; also called mouse mAb 65G9
Regarding B13, in experiment [2], binding was put at a Kd of 0.451 nM, the koff amounted to 0.000355 s⁻¹ and the kon was found to be 787000 M⁻¹ s⁻¹.

B14: Chimeric 224G3 (antibody, V domains shown)
VH: EVQLVESGGDLVKPGGSLKLSCAASGFTFSSYGMSWVRQTPDKRLEWVATISNGGSYTYYPDSVKGRFTISRDNAKNTLYMQMSSLKSEDTAMYYCARNEPPDYWGQGTSVTVSS
VL: QIVLTQSPAIMSASLGERVTMTCTASSSVGSSYLHWYQQKPGSSPKLWIYDTSNLASGVPVRFSGSGSGTSYSLTISSMEAEDAATYYCHQYHRSPYTFGGGTKLEIK
notes: canine constant regions not specified; also called m224G3 Chim
Turning to B14, in experiment [1], the midpoint of the response, the EC50, lay at 0.383 ng/mL.

B15: c100H8VH7VL4 (antibody, V domains shown)
VH: EVQLVQSGAEVKKPGASVKVSCKASGYTFTDYNMDWVRQAPGAGLDWIGHINPNNGGILYNQKFKGKATLTADTSTSTAYMELSSLRAGDIAVYYCARWAPLVRQPYWYFDVWGQGTLVTVSS
VL: DIVMTQTPLSLSVSPGETASISCKASQDINSYLNWFRQKPGQSPQLLIYRADRLVDGVPDRFSGSGSGTDFTLRISTVEADDTGVYYCLQYDEFPLTFGAGTKVELKR
notes: Caninized antibody; chains tied by name to c100H8VH7-cIgGBm and c100H8VL4-cCK; also called c100H8VH7L4
Regarding B15, a half-maximal effect in experiment [1] (EC50) was put at 0.581 ng/mL.

Source of the values: patent US20250340654A1 (INTERVET, published 2025).
